According to US20250170209A1 (published 2025):

B1: CA28-AEEAc-Lys-(PEG40k) (peptide)
peptide: ICVXQDWGAHRCTK
modifications: not fully specified; N-terminal acetyl; 1-methyl-tryptophan at position 4; disulfide Cys2-Cys12; AEEAc (8-amino-3,6-dioxaoctanoyl) between Thr13 and Lys; linear monofunctional 40 kD methoxy-PEG (SUNBRIGHT ME-400GS) on the Lys side chain; C-terminal amide
B2: CA28-AEEAc-Lys-(PEG30k) (peptide)
peptide: ICVXQDWGAHRCTK
modifications: not fully specified; N-terminal acetyl; 1-methyl-tryptophan at position 4; disulfide Cys2-Cys12; AEEAc (8-amino-3,6-dioxaoctanoyl) between Thr13 and Lys; linear monofunctional 30 kD PEG (SUNBRIGHT ME-300GS) on the Lys side chain; C-terminal amide
B3: (CA28-AEEAc)8-PEG40k (peptide)
peptide: ICVXQDWGAHRCTK
modifications: not fully specified; N-terminal acetyl; 1-methyl-tryptophan at position 4; disulfide Cys2-Cys12; AEEAc between Thr13 and Lys; Lys side chain coupled to one arm of an eight-arm 40 kD PEG (SUNBRIGHT HGEO-400GS); C-terminal amide

Assays:
[1] = target: T1, complement component C3 (human, UniProt P01024 23-1663); test: cell-based or functional assay
[2] = target: T1, complement component C3; test: cell-based or functional assay; remark: listed apart in the source

Binder | IC50; classical complement inhibition assay (C3b deposition ELISA, human plasma) [1] [µM] | activity relative to CA28 on a molar basis; classical complement inhibition assay [2] | IC50 as a function of CA28 concentration (per peptide moiety); classical complement inhibition assay [1] [µM] | IC50 on a molar basis (calculated for 7.5 CA28 moieties per molecule); classical complement inhibition assay [2] [µM]
B1 | 1.29 | ~30 % of the activity of CA28 | – | –
B2 | 1.26 | ~30 % of the activity of CA28 | – | –
B3 | – | – | 1.93 | ~0.26
